Results taken from US11193155B2, “Designer α 6-fucosidase mutants enable direct core fucosylation of intact N-glycopeptides and N-glycoproteins” (UNIVERSITY OF MARYLAND, COLLEGE PARK, priority 2016, dated 2021).

Columns and labels:
[1] = target: T1, Aleuria aurantia lectin (AAL) (Aleuria aurantia, UniProt P18891); experiment: ELISA analysis of binding between lectin AAL and glycoproteins or released N-glycans; details: for AAL binding: glycoprotein coated on plate; for EC50: glycoprotein coated on plate (10 μg/ml), AAL-biotin serial dilution
T1 sequence (P18891 1-313): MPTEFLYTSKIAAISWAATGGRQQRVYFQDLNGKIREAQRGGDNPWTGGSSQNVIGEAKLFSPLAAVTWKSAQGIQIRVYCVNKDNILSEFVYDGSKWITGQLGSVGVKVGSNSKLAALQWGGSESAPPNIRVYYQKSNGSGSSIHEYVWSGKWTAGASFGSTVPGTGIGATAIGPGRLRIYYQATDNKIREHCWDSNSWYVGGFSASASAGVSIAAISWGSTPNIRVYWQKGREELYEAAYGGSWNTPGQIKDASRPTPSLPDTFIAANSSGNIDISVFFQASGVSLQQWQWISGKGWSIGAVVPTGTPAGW
Text: FIG. 9 ELISA analysis of the binding between lectin AAL and glycoproteins or released N-glycans. The glycoproteins or released N-glycans (tagged with Fmoc) were immobilized on the plates and probed by serial dilutions of the lectin. A) AAL binding with RNase B (20) and fucosylated RNase B (21); B) AAL binding with non-fucosylated glycoform of rituximab (28) and fucosylated rituximab glycoform (30); C) AAL binding with the PNGase F released high-mannose N-glycans released from 20 and 21; D) ALL binding with the PNGase F released complex type N-glycans from 28 and 30.
The glycoprotein (20, 21, 28 or 30) (10 μg/ml) in a phosphate buffer (pH 7.5) was coated onto a 96-well plate (UltraCruz®) at 4° C. for overnight. After wash twice, 2% bovine serum albumin in PBS containing Tween® 20 (PBST buffer) was added to block the plate for 2 h. Subsequently, after washed twice again, a serial dilution of AAL-biotin ranging from 0.1 μM to 1000 μM in PBST buffer was added and the plate was incubated for 1 h. After washing, peroxidase streptavidin (2 μg/mL) (Jackson ImmunoResearch Inc.) was added and incubated for 1 h. Finally, 100 μL of substrate, 3, 3′, 5, 5′-tetramethylbenzidine was added for signal development. The reaction was stopped by the adding 100 μL of 20% sulfuric acid (v/v). The absorbance at 450 nm was measured using SpectraMax M5 microplate reader (Molecular Devices). For the binding of the N-glycans, the Fmoc-labeled N-glycans released from 20, 21, 28 and 30 (1 μg/ml) were coated on the plate and the ELISA analysis was performed in the same manner as that of the glycoproteins.

physchem = type: physicochemical; details: buffer, pH 7.4
Text: Initially, the D200 mutants were examined as potential glycosynthases using two types of activated fucosyl donors with opposite anomeric configuration as substrates. For nucleophile mutant such as D200G, a fucosyl fluoride with reversed anomeric configuration, β-fucosyl fluoride or β-fucosyl azide, should be applied to mimic the enzyme-substrate intermediate^52,53,67. However, β-glycosyl fluorides are quite unstable and are subjected to spontaneous hydrolysis in aq. solutions^42. Indeed, most successful glycosynthases have been derived so far from retaining β-glycosidases that take the α-glycosyl fluoride as donor substrate. […] Thus, the potential glycosylation activity of the nucleophilic mutants, including D200G, D200S, D200A, and D200S, were tested using both the β-glycosyl azide (1) and the β-glycosyl fluoride (2) as the donor substrates and the Fmoc-Asn(GlcNAc)-OH (4)^69 as the acceptor substrate (FIG. 3). The reactions were run with different amounts of enzymes and were monitored by reverse-phase HPLC analysis.

[2] = buffer; cited from earlier work
[3] = Glycoligase (transfucosylation) activity on acceptor 4, pH and temperature profiles; type: biochemical; details: donor 3, acceptor 4, pH 7.5, 42° C.
Description: A) pH profile; B) temperature profile of its catalysis. […] The transglycosylation product was quantitated by HPLC analysis. To investigate temperature profile of AlfC α-fucosidase in transglycosylation reaction, a mixture of donor sugar 3 (20 mM), acceptor sugar (4) (10 mM) and enzyme AlfC E274G (0.2 mg/mL) was incubated in a PBS buffer (0.1 M, pH7.5) containing 5% DMSO. The reactions were carried out for 20 min at various temperatures, including 25° C., 30° C., 35° C., 40° C., 45° C., 50° C. and 55° C. The transglycosylation product was quantitated by HPLC analysis.
Next, the potential glyco-ligase activity was tested of the general acid/base residue mutants using the α-fucosyl fluoride (3) as the donor substrate (FIG. 3).

[4] = Transglycosylation kinetics of AlfC α-fucosidase mutants; type: biochemical; details: apparent; donor sugar 0.2 to 2.0 mM, acceptor 2.0 mM, sodium phosphate 0.1M pH 7.5, 42° C.
Description: The kinetic studies on transglycosylation were carried out at 42° C. in sodium phosphate (0.1 M, pH 7.5). The transglycosylation product was detected and quantitated by HPLC analysis. The concentration of the donor substrates (1-3) was varied from 0.2 to 2.0 mM, while that of the acceptor (4) was fixed (2 mM). KM and kcat values (strictly, apparent KM and kcat, as they were determined at a fixed, nonsaturating, co-substrate concentration) were determined by fitting the initial velocity curves to the Michaelis-Menten equation by nonlinear regression in GraFit.

[5] = Hydrolysis of α-fucosyl fluoride in the absence of the GlcNAc acceptor; type: biochemical
rituximab = experiment: Defucosylation of rituximab by wild-type AlfC α-fucosidase; type: biochemical
Text: The potent transfucosylation activity of AlfC α-fucoligase towards glycopeptides and glycoproteins prompted further exploring of its application for glycoengineering of therapeutic monoclonal antibodies. Core fucosylation of the Fc domain N-glycans plays a pivotal role in modulating the functions of antibodies and their therapeutic efficacy^8,74. It was previously developed by the current inventors a chemoenzymatic Fc glycan remodeling method that consists of deglycosylation and glycosynthase-catalyzed glycan transfer to produce homogeneous Fc glycoforms^65,66,75. If the fucoligase mutant could act on intact antibody, then it would further expand the repertoire of the toolbox for antibody Fc glycan engineering. To test this possibility, rituximab (26) was selected as a model system. First, rituximab was deglycosylated with Endo-S followed by defucosylation with the wild type AlfC α-fucosidase to give the GlcNAc-rituximab (27) (FIG. 7). […] The non-fucosylated complex type glycoform (28) of rituximab was synthesized by the EndoS-D233Q catalyzed glycosylation with glycan oxazoline (24) as the donor, following previously published procedure^75. These two glycoforms (27 and 28) were used as potential substrates for examining the AlfC fucoligase mutants. […] The product was readily isolated by protein A affinity chromatography. To confirm the identity of the Fucα1,6GlcNAc-rituximab (29), the product was treated with protease IdeS which specifically hydrolyzes IgG antibody to release the monomeric Fc domain, and the released Fc was analyzed by ESI-MS. […] As described previously, Fucα1,6GlcNAc-rituximab (29) was an excellent substrate for EndoS-D233Q^75. Indeed, incubation of 29 with EndoS-D233Q and glycan oxazoline (24) gave the expected core-fucosylated complex type glycoform of rituximab (30) in excellent yield, further confirming that the 29 was the expected Fucα1,6GlcNAc-rituximab.
Finally, the direct fucosylation of the intact rituximab (28) was tested carrying the full size complex type Fc N-glycans. […]

## 28: non-fucosylated complex type glycoform of rituximab [compound 28]
[1]
  AAL binding: did not show any detectable affinity

## 30: core-fucosylated complex type glycoform of rituximab [compound 30]
[1]
  AAL binding: specific recognition
  EC50: 15 µM
[1]; glycoproteins
  affinity for AAL relative to core-fucosylated RNase B (21): about 17 fold

## C[C@@H]1O[C@H](F)[C@@H](F)[C@H](O)[C@@H]1O [compound 2, 2-deoxy-2-fluoro-β-fucosyl fluoride]
physchem
  half-life: 6 h

## C[C@@H]1O[C@H](F)[C@@H](O)[C@H](O)[C@@H]1O [β-fucosyl fluoride]
[2]
  half-life (spontaneous hydrolysis): ca. 20 min

B1: E274G: Lactobacillus casei α1,6-fucosidase (AlfC) mutant at general acid/base residue E274 (protein)
chain: MNDNVAWFKQAKYGMMIHWGLYSLLAGEYRGESSSAYAEWIQSKFQIPNAEYGNLATAFNPLYFDAKKIVALAKQCGMQYLVVTTKHHDGFAMYHSKVDAYNVYDATPFHRDIIGELAEACQKAGLKFGLYYSQDLDWHDPNGGGYKSNDVETAGTTWDNSWDFPDEDQKNFDLCFDNKILPQIKEIMSNYGDIATAWFDVPMTLSEAQSQTIYDTVRELQPNCLINSRLGNGKYDFVSLGDNEIPKNKEDMNKTDVDYNEITGFKPSPLGLYGTAGTINDSWGFSYHDQNWKTPRTLYRYKQHLNDFGINYLLNVGLDPLGRVPMMAEENLLAAKALEDEANRL
[3]
  catalytic activity to transfer fucose to GlcNAc of acceptor 4: excellent catalysts for fucosylation
[4]
  Km: 250 ± 30 µM
  kcat: 1.38 ± 0.15 × 10^2 min^−1
[5]
  hydrolysis of α-fucosyl fluoride: only hydrolyzed α-fucosyl fluoride slowly

B2: E274S: Lactobacillus casei α1,6-fucosidase (AlfC) mutant at general acid/base residue E274 (protein)
chain: MNDNVAWFKQAKYGMMIHWGLYSLLAGEYRGESSSAYAEWIQSKFQIPNAEYGNLATAFNPLYFDAKKIVALAKQCGMQYLVVTTKHHDGFAMYHSKVDAYNVYDATPFHRDIIGELAEACQKAGLKFGLYYSQDLDWHDPNGGGYKSNDVETAGTTWDNSWDFPDEDQKNFDLCFDNKILPQIKEIMSNYGDIATAWFDVPMTLSEAQSQTIYDTVRELQPNCLINSRLGNGKYDFVSLGDNEIPKNKEDMNKTDVDYNEITGFKPSPLGLYSTAGTINDSWGFSYHDQNWKTPRTLYRYKQHLNDFGINYLLNVGLDPLGRVPMMAEENLLAAKALEDEANRL
[3]
  catalytic activity to transfer fucose to GlcNAc of acceptor 4: excellent catalysts for fucosylation
[4]
  Km: 260 ± 30 µM
  kcat: 2.42 ± 0.14 × 10^2 min^−1
[5]
  hydrolysis of α-fucosyl fluoride: only hydrolyzed α-fucosyl fluoride slowly

B3: wild type AlfC: α1,6-fucosidase from Lactobacillus casei (AlfC), wild type (protein, listed as Lactobacillus casei)
chain: MNDNVAWFKQAKYGMMIHWGLYSLLAGEYRGESSSAYAEWIQSKFQIPNAEYGNLATAFNPLYFDAKKIVALAKQCGMQYLVVTTKHHDGFAMYHSKVDAYNVYDATPFHRDIIGELAEACQKAGLKFGLYYSQDLDWHDPNGGGYKSNDVETAGTTWDNSWDFPDEDQKNFDLCFDNKILPQIKEIMSNYGDIATAWFDVPMTLSEAQSQTIYDTVRELQPNCLINSRLGNGKYDFVSLGDNEIPKNKEDMNKTDVDYNEITGFKPSPLGLYETAGTINDSWGFSYHDQNWKTPRTLYRYKQHLNDFGINYLLNVGLDPLGRVPMMAEENLLAAKALEDEANRL
rituximab; intact rituximab, before Endo-S treatment, listed as wild type AlfC α-fucosidase
  hydrolytic (defucosylation) activity: almost no activity
rituximab; intact rituximab, before Endo-S treatment, listed as wild-type AlfC α-fucosidase
  hydrolytic (defucosylation) activity: unable to remove the fucose moiety
rituximab; rituximab after Endo-S deglycosylation
  hydrolytic (defucosylation) activity: good hydrolytic activity
[5]
  hydrolysis of α-fucosyl fluoride: could quickly hydrolyze the donor substrate

B4: 21: core-fucosylated RNase B glycoforms carrying core fucosylated high-mannose glycans (protein, UniProt P61823 27-150, looked up)
Ribonuclease pancreatic: KETAAAKFERQHMDSSTSAASSSNYCNQMMKSRNLTKDRCKPVNTFVHESLADVQAVCSQKNVACKNGQTNCYQSYSTMSITDCRETGSSKYPNCAYKTTQANKHIIVACEGNPYVPVHFDASV
modifications: core-fucosylated high-mannose glycans
[1]
  AAL binding: specific binding
  EC50: 275 µM

B5: 20: bovine ribonuclease B, natural glycoprotein with heterogeneous high-mannose type N-glycan (protein)
chain: KETAAAKFERQHMDSSTSAASSSNYCNQMMKSRNLTKDRCKPVNTFVHESLADVQAVCSQKNVACKNGQTNCYQSYSTMSITDCRETGSSKYPNCAYKTTQANKHIIVACEGNPYVPVHFDASV
[1]
  AAL binding: didn't show any binding
